# Reference: patent US20250051458A1, “Methods for Treating Neurodegeneration Targeting IGF1/IGF1R” (The Schepens Eye Research Institute, Inc., priority 2021, published 2025)
# B1: IGFBPL1: insulin-like growth factor binding protein like protein 1; recombinant protein (R&D system, 4130-BL) (protein)
# chain: LGLRDAGRRHPECSPCQQDRCPAPSPCPAPWISARDECGCCARCLGAEGASCGGPVGSRCGPGLVCASRASGTAPEGTGLCVCAQRGAVCGSDGRSYSSICALRLRARHAPRAHHGHLHKARDGPCEFAPVVLMPPRDIHNVTGTQVFLSCEVKAVPTPVITWKKVKHSPEGTEGLEELPGDHVNIAVQVRGGPSDHETTSWILINPLRKEDEGVYHCHAANAIGEAQSHGTVTVLDLNRYKSLYSSVPGDLL
# Test system: microglial cultures isolated from the retina and brain or the BV2 cells
# Test: COX2 immunostaining in LPS-treated microglial cultures (retina, brain, BV2 cells)
# Type: cell-based, mouse
# Conditions: IGFBPL1 added 6 hr after LPS
# Description: For primary retinal microglia isolation, microglia cells were isolated from mice retina using magnetic CD11b microbead (BD, 558013). The purification protocol was following manufacture's instructions. Briefly, the papain dissociated retinal cells were resuspended into diluted BD IMag™ Buffer (BD, Cat. No. 552362). After 6-8 mins washing at 300 g, 50 ul of magnetic CD11b microbeads were added for every 10^7 total cells and then incubated for 30 mins at 6-12° C. Then bring the BD IMag-particle labeling volume up to 1-8×10^7 cells/ml with 1×BD IMag™ buffer, and immediately place the tube on the Cell Separation Magnet (BD, Cat. No. 552311). Carefully aspirate off the supernatant after 6-8 minutes incubation at room temperature, and then repeat two times washing. The positive fractions left in the tube were then collected for culture. Around 3000 cells per well were seeded in 8-well Nunc® Lab-Tek™ II Chamber Slide™ (Thermo Scientific, Cat. No. 154534PK). The isolated microglial cells were cultured at 37° C. with 5% C02 in DMEM with 10% FBS and 50 ng/ml rmCSF1 (PeproTech, Cat. No. 315-02).
# For primary mouse brain microglia isolation, we optimized our protocol based previously reported protocol^2. First step was to collect brain after perfusing mice with saline. […]
molecule,measurement,value
B1,LPS-induced COX2 upregulation,suppressed
